As a reminder, the stoichiometry N is a count of units in the complex or per binding partner.

For the assay, the target named is AMC008 SOSIP.v4.2 Env (HIV-1 (clade B, isolate AMC008)). The assay is described as follows: mass photometry; AMC008 alone or with one excess Fab, 1:9 molar ratio in PBS, on ice 30 minutes, diluted in PBS; mass increase divided by 55 kDa per Fab.
As for AMC008 SOSIP.v4.2 Env (complex), the stoichiometry N is 3. With antibody 3BC315 Fab, the stoichiometry N worked out at 2.07 Fab/55 kDa. For antibody b12 Fab the value was 3.09 Fab/55 kDa.

The values are drawn from article PMC13168245.
